Test results as given in PMC7502447, “Characterization and functional analysis of two novel thermotolerant α-L-arabinofuranosidases belonging to glycoside hydrolase family 51 from Thielavia terrestris and family 62 from Eupenicillium parvum” (Applied Microbiology and Biotechnology, 2020).

Substrate: O=[N+]([O-])c1ccc(O[C@@H]2O[C@@H](CO)[C@H](O)[C@H]2O)cc1
Assay: purified protein
Type: biochemical, Thermothielavioides terrestris
Details: standard conditions, sodium acetate buffer, optimum pH 5.0, 70 °C

B1: TtABF51A (Thermothielavioides terrestris NRRL 8126) (protein)
chain: AVTLSVAKSGGNATSPYMYGIMFEDISHSGDGGLYAELIQNRAFQNGTLDAWSAVGGATLALDTSTPLSQALPRSVKVTGGQHTAGLKNSGFWGFDVKKSKKYTGSFYSYGEYSGRFTVSLVSNTTSEIFATTTVKSKSVAGRWTQHTFELRPTKDAPDISNSFVLEYKPTPHTELKFNLISLFPPTYKNRANGMRPELMEKLKELNPTYIRCPGGNNVEGNYAGNYWNWSATVGPLKDRPGRPGTWGYYNTDGLGLVEYMHWAEDLGMDVVLAVPAGLYLDGEVVSEADLAPFVQDALNELEFLMGDVSTPYGALRAKLGYPKPWKIKFVEIGNEDNLWGGLDSYKGYRFRMFYDAIKAKYPDIFIFSSTAEYMYKQSGRDYHEYTRPDYFVSQFGMFDNWTAGNPIMIGEFASIQNNTGKLEDTDWNAPKNPWSTWIGSVAEAVFLLGAERNSDRVWGVSFAPLLQNLNSYQWTPDLISFTADPADTTVSVSYPILSLFAKHPLTHTLPATAANGTSFGPAYWVAGRNDAAGTYLLKAAVYNSTGGAEVPFRVGFDGLSRGAPATLTVLTAPGGPFAHNTPANKNAVKTAVTQLRAGEGGVLEFSLPDLSVAVLEAKW
notes: full length 640 aa; predicted 20-aa signal peptide removed; C-terminal 6xHis; predicted N-terminal CBM4_9 kept; expressed in Trichoderma reesei D-86271
B1 showed a Km of 300 ± 20 µM, a Vmax of 108 µmol/min/mg and a kcat of 123 ± 2.91 s⁻¹.
